Assay [1] concerns the target Human metapneumovirus (HMPV) phosphoprotein (P), strain CAN97-83 (Human metapneumovirus (strain CAN97-83)) (UniProt Q8B9Q8).
Assay [2] has the same target. This is another data set of the same source.

Among the data in publication PMC9239117 are turbidity assay, absorbance values, retold here.

Molecule “HMPV N^0-P construct: full-length N (1 to 394) fused to a P peptide (1 to 40) (from UniProt Q6WBA1 1-394; Q8B9Q8 1-40)” had a turbidity assay, absorbance at 395 nm against time (5-min intervals), N^0-P (40 uM) with anion exchange-purified P (40 uM), against N^0-P alone (peak above 0.6) (absorbance at 395 nm) in assay [1] of 0.3.

B1: HMPV wild-type nucleoprotein N, RNA-bound rings (N-RNA), strain CAN97-83 (natural protein)
chain: MSLQGIHLSDLSYKHAILKESQYTIKRDVGTTTAVTPSSLQQEITLLCGEILYAKHADYKYAAEIGIQYISTALGSERVQQILRNSGSEVQVVLTRTYSLGKVKNNKGEDLQMLDIHGVEKSWVEEIDKEARKTMATLLKESSGNIPQNQRPSAPDTPIILLCVGALIFTKLASTIEVGLETTVRRANRVLSDALKRYPRMDIPKIARSFYDLFEQKVYYRSLFIEYGKALGSSSTGSKAESLFVNIFMQAYGAGQTMLRWGVIARSSNNIMLGHVSVQAELKQVTEVYDLVREMGPESGLLHLRQSPKAGLLSLANCPNFASVVLGNASGLGIIGMYRGRVPNTELFSAAESYAKSLKESNKINFSSLGLTDEEKEAAEHFLNVSDDSQNDYE
In assay [2], B1 displayed a turbidity assay, absorbance at 395 nm against time (5-min intervals), N-RNA (40 uM) with heparin-purified P (40 uM), against N-RNA alone (absorbance at 395 nm) of 0.2.
